Measurements published in the supplement of paper PMC6757056.
± gives the standard deviation of the averaged measurements.

B1: library; a variant is named by its letters at N, in order (parent)
chain: GCUGUCACCGGAAUACCAGCAUCGUCUUGAUGCCCUUGGAAGUCCGGUCUGAUGAGUCCNNNNNGGACGAAACAGC

Columns and labels:
[1] = variants of: B1; test: FACS-Seq fitted mean relative fluorescence mCherry/BFP without ligand (log10 relative fluorescence); higher = higher reporter protein expression; details: HEK293T, ligand present: no
In short: (§1)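 HEK293T libraries were made by lentiviral transduction with a ribozyme-switch mCherry reporter and an EF1α-BFP marker, enriched, and incubated with or without ligand for 48 h. Cells were sorted into 6 mCherry/BFP bins, and each bin's genomic DNA was PCR-amplified, barcoded and run on MiSeq. Fluorescence was derived by normal fitting of the bin counts. The fitted log10(mCherry/BFP) mean was scaled to five spiked-in control ribozymes.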

[2] = variants of: B1; test: normalized RNA/DNA level with ligand (relative to sTRSVctl = 100) (log10 (% of sTRSVctl)); higher = less ribozyme self-cleavage, higher mRNA level; details: ligand concentration (+) RNA-Seq: 5 mM, HEK293T, reporter: mCherry (pCS4076), ligand present: yes
In short: (§2)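 Total RNA, extracted with EDTA 72 h after HEK293T cells were transfected with 4 µg per 6-well well of reporter-linked ribozyme switch library plasmids, was reverse-transcribed, amplified, barcoded and sequenced. Ligand, if used, was added 1 h before transfection. RNA level was derived from RNA reads divided by DNA reads and normalized to a spiked-in non-cleaving sequence or to the top sequences. This was multiplied by 100 and log10-transformed, with the top set of 25 sequences and a ≥100 DNA read minimum.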

[3] = variants of: B1; test: normalized RNA/DNA level without ligand (relative to sTRSVctl = 100) (log10 (% of sTRSVctl)); higher = less ribozyme self-cleavage, higher mRNA level; details: HEK293T, reporter: mCherry (pCS4076), ligand present: no
In short: as §2

[4] = variants of: B1; test: FACS-Seq fitted mean relative fluorescence mCherry/BFP with ligand (log10 relative fluorescence); ligand concentration (+) FACS-Seq: 1 mM; higher = higher reporter protein expression; details: HEK293T, ligand present: yes
In short: as §1

Variant	FACS-Seq fitted mean (log10) [1]	normalized RNA/DNA level with ligand (log10) [2]	normalized RNA/DNA level without ligand (log10) [3]	FACS-Seq fitted mean (log10) [4]
AGUCA	0.8 ± 0.087	1.98 ± 0.14	1.73 ± 0.059	0.766 ± 0.027
GUAGA	0.949 ± 0.15	1.8 ± 0.057	1.66 ± 0.14	0.935 ± 0.15
AGUAA	0.346 ± 0.083	1.89 ± 0.12	1.35 ± 0.13	0.781 ± 0.02
AGUAC	0.729 ± 0.04	1.997 ± 0.019	1.83 ± 0.068	0.749 ± 0.072
AGUAG	0.85 ± 0.075	1.97 ± 0.1	1.71 ± 0.034	0.8838 ± 0.0022
UGUGA	0.563 ± 0.0013	2.05 ± 0.037	1.54 ± 0.11	0.837 ± 0.034
UGUGC	0.71 ± 0.038	2.04 ± 0.047	1.93 ± 0.086	0.652 ± 0.0049
UGUGU	0.525 ± 0.032	1.88 ± 0.044	1.87 ± 0.15	0.589 ± 0.048
GUAAU	0.914 ± 0.062	1.937 ± 0.015	1.82 ± 0.085	0.966 ± 0.16
GUAAA	0.745 ± 0.13	1.982 ± 0.016	1.7 ± 0.045	0.936 ± 0.11
UUACG	1.08 ± 0.025	2.019 ± 0.0074	1.93 ± 0.029	1.02 ± 0.027
UUACU	1.05 ± 0.07	2.08 ± 0.052	1.93 ± 0.058	1.01 ± 0.18
UUACC	0.865 ± 0.28	2.02 ± 0.022	1.96 ± 0.095	0.847 ± 0.12
CUCAC	1.14 ± 0.019	2.02 ± 0.075	2.02 ± 0.13	1.12 ± 0.075
CUCAU	1.03 ± 0.12	1.973 ± 0.0058	1.85 ± 0.06	1.07 ± 0.03
CUCAA	0.816 ± 0.072	1.99 ± 0.05	1.67 ± 0.022	0.914 ± 0.068
UUAAU	1.13 ± 0.062	1.9977 ± 0.0018	1.956 ± 0.013	1.07 ± 0.036
UUAAG	0.769 ± 0.074	2.02 ± 0.033	1.855 ± 0.012	0.829 ± 0.086
